Assay results from US7875275B2, “Use of Bridge-1 and activators and inhibitors thereof in the treatment of insulin deficiency and diabetes” (The General Hospital Corporation, priority 2004, dated 2011).

Key:
[1] = molecular target: T1, Bridge-1 (Gal4 DBD-Bridge-1) (Rattus norvegicus, UniProt Q9WTV5); assay: Gal4-Bridge-1 transactivation assay in BHK cells (Gal4-luciferase reporter); type: cell-based
T1 construct: excision of full-length rat Bridge-1 cDNA from the previously reported Gal4-Bridge-1 (pM-Bridge-1) vector; expressed in transfected cells; host or cells: BHK cells (BHK-21 C-13), transient transfection
T1 sequence (Q9WTV5 with tags, fused parts or gaps): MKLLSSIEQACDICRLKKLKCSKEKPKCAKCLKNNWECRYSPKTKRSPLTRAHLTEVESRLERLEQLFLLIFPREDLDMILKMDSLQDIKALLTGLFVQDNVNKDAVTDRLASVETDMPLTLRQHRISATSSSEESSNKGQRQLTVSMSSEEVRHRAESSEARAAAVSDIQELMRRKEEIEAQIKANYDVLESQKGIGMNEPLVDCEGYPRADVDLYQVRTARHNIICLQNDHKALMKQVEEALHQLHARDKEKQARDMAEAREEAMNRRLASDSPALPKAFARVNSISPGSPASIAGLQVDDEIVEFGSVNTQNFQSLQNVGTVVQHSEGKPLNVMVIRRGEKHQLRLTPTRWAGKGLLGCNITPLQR
Procedure: FIG. 17 (a-d). The coactivator Bridge-1 interacts with multiple domains of p300. (a) Trichostatin A increases transcriptional activation by Bridge-1. BHK cells were transfected in duplicate with 1.5 μg Gal4-Bridge-1 or empty Gal4 expression vector, 3.25 μg pBluescript, and 250 ng of a Gal4-luciferase reporter and treated with vehicle (0), 2, or 4 ng/mL trichostatin A for 24 hours. Results shown are the mean+/−SEM relative luciferase activity of Gal4-Bridge-1 normalized to the empty Gal4 expression vector (n=3-5 transfections). (b) p300 increases the transcriptional activation by Bridge-1. BHK cells were transfected in duplicate with 0-3 μg of the p300 expression vector pCMV-p300 and 0.5 μg Gal4-Bridge-1 or empty Gal4 expression vector and 1 μg of a Gal4-CAT reporter. pBluescript was used to normalize the total DNA content for all conditions. Data shown are the mean of two transfections. (c) Bridge-1 directly interacts with p300. GST-Bridge-1 or GST control proteins were incubated with in vitro translated, radiolabeled [^35S]-p300 in GST protein interaction assays. A representative autoradiogram is shown of an SDS polyacrylamide gel from a GST pull-down protein interaction assay with the migration position of [^35S]-p300 designated (arrow). (d) Bridge-1 interacts with multiple domains within p300. […]
Various compounds were assayed for their ability to activate or inhibit Bridge-1 transactivation function. In these experiments, the transactivation assay previously described (Thomas, M. K. et al., Mol. Cell. Biol. 19(12):8492-8504 (1999)) incorporated herein by reference) was used with the modification that the plasmid reporter was a Gal4 luciferase reporter with luciferase activity measured rather than the Gal4CAT reporter used in 1999. […]
(§1) Cell culture and transfections. […] Transfections were conducted with Lipofectamine or Lipofectamine 2000 (Invitrogen Life Technologies) according to published methods (Thomas, M. K., et al., Molec. Cell. Biol. 19:8492-8504 (1999). Yeast transcriptional activation assays were conducted as previously reported (Thomas, M. K., et al., supra; Golemis, E. A., et al., Current Protocols in Molecular Biology, Ausubel, F. M., et al., eds., John Wiley and Sons, pp. 13.14.1-13.14.17 (1994)) with quantitative LexA-operator responsive beta-galactosidase reporter assays as outlined by the manufacturer (BD Biosciences Clontech, Palo Alto, Calif.).

Gal4-Bridge-1 = molecular target: T2, Gal4-Bridge-1 (UniProt P04386+Q9WTV5); assay: Gal4-Bridge-1 transcriptional activation of Gal4-CAT reporter in BHK cells; type: cell-based, rat; conditions: 0-3 μg pCMV-p300 expression vector
T2 construct: excision of full-length rat Bridge-1 cDNA from the previously reported Gal4-Bridge-1 (pM-Bridge-1) vector; expressed in transfected cells; host or cells: BHK cells (BHK-21 C-13), transient transfection
T2 sequence (P04386+Q9WTV5 fused): as the sequence (Q9WTV5 with tags, fused parts or gaps) above
Procedure: FIG. 17 (a-d). The coactivator Bridge-1 interacts with multiple domains of p300. (a) Trichostatin A increases transcriptional activation by Bridge-1. BHK cells were transfected in duplicate with 1.5 μg Gal4-Bridge-1 or empty Gal4 expression vector, 3.25 μg pBluescript, and 250 ng of a Gal4-luciferase reporter and treated with vehicle (0), 2, or 4 ng/mL trichostatin A for 24 hours. Results shown are the mean+/−SEM relative luciferase activity of Gal4-Bridge-1 normalized to the empty Gal4 expression vector (n=3-5 transfections). (b) p300 increases the transcriptional activation by Bridge-1. […]
as §1

PDX-1 Bait = molecular target: T3, PDX-1 Bait (Rattus norvegicus, UniProt P52947); assay: Semiquantitative yeast two-hybrid interaction trap assay; type: binding; design: key: ++: growth on leucine dropout plates and intense blue colonies on X-gal plates; −: no growh on leucine dropout plates and white colonies on X-gal plates; conditions: LexA-rat PDX-1 amino acids 160-283 bait, LEU2 and lacZ reporters
T3 construct: A LexA-rat PDX-1 bait fusion protein construct consisting of PDX-1 amino acids 160-283 cloned in the vector pEG202; expressed in transfected cells
T3 sequence (P52947 160-283): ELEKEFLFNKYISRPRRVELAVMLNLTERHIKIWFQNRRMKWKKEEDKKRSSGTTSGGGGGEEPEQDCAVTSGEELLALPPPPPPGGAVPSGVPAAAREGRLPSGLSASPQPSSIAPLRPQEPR
Procedure: Yeast interaction trap assays. Semiquantitative yeast two-hybrid interaction trap assays were conducted as previously reported (Golemis et al., 1994; Thomas et al., 1999). A LexA-rat PDX-1 bait fusion protein construct consisting of PDX-1 amino acids 160-283 cloned in the vector pEG202 and an acidic domain-rat Bridge-1 fusion protein construct cloned in the vector pJG4-5 were independently tested for activation of LexA operator-responsive LEU2 or β-galactosidase (lacZ) reporters in yeast. Interactions of E12 with rat Twist and rat inhibitor of differentiation-3 (Id3) proteins were used as positive controls and interactions of Bridge-1 with the human interleukin-1 receptor or D. melanogaster bicoid proteins were used as negative controls for the assays (Thomas et al., 1999). Fusion protein interactions were measured independently by growth on leucine dropout plates as a measure of LEU reporter activation or by blue color intensity with growth for 72 hours at 30° C. on X-Gal (5-bromo-4-chloro-3-indoyl-β-D-galactopyranoside) plates as a measure of lacZ reporter activation.
We assessed whether Bridge-1 interacts with PDX-1 in a yeast two-hybrid interaction trap system. […] Thus the rat Bridge-1 protein interacts with a carboxy-terminal PDX-1 protein fragment in yeast cells.

[2] = Gal4-luciferase reporter, 24 hours incubation, vs vehicle

In the case of `CC(=O)[C@H]1CC[C@H]2[C@@H]3CCC4=CC(=O)CC[C@]4(C)[C@H]3CC[C@]12C` [Progesterone], the “inhibition of Bridge-1 transactivation function” value [1, 2] is reported as 22%.

`CC(/C=C/C(=O)NO)=C\[C@@H](C)C(=O)c1ccc(N(C)C)cc1` [Trichostatin A] was tested, and the “effect on transcriptional activation by Bridge-1” value ([1]; 2 or 4 ng/mL for 24 hours) was “increased the transcriptional activation by Bridge-1 in a dose-dependent manner” and the “activation of Bridge-1 transactivation function” value [1, 2] was 2.7 fold.

With Activin A the “activation of Bridge-1 transactivation function” value [1, 2] was 2.34 fold.

“p300: histone acetyltransferase and nuclear receptor coactivator, expressed from pCMV-p300 vector” was tested, and the “increase of reporter activation by Gal4-Bridge-1” value (Gal4-Bridge-1) was “over 70 fold”.

B1: Twist: rat Twist protein, control in yeast interaction trap assay (protein)
chain: MMQDVSSSPVSPADDSLSNSEEEPDRQQPASGKRGARKRRSSRRSAGGSAGPGGATGGGIGGGDEPGSPAQGKRGKKSAGGGGGAGGGGGGGGSSSGGGSPQSYEELQTQRVMANVRERQRTQSLNEAFAALRKIIPTLPSDKLSKIQTLKLAARYIDFLYQVLQSDELDSKMASCSYVAHERLSYAFSVWRMEGAWSMSASH
B1 was tested, and the “Interaction with PDX-1 Bait” value (PDX-1 Bait) was “−”.

B2: Id3: rat inhibitor of differentiation-3 protein, control in yeast interaction trap assay (protein)
chain: MKALSPVRGCYEAVCCLSERSLAIARGRGKSPSAEEPLSLLDDMNHCYSRLRELVPGVPRGTQLSQVEILQRVIDYILDLQVVLAEPAPGPPDGPHLPIQTAELTPELVISKDKRSFCH
For B2, the “Interaction with PDX-1 Bait” value (PDX-1 Bait) was “−”.

B3: Bridge-1: rat PDZ-domain transcriptional coactivator, acidic domain fusion in pJG4-5 (protein)
chain: MSSEEVRHRAESSEARAAAVSDIQELMRRKEEIEAQIKANYDVLESQKGIGMNEPLVDCEGYPRADVDLYQVRTARHNIICLQNDHKALMKQVEEALHQLHARDKEKQARDMAEAREEAMNRRLASDSPALPKAFARVNSISPGSPASIAGLQVDDEIVEFGSVNTQNFQSLQNVGTVVQHSEGKPLNVMVIRRGEKHQLRLTPTRWAGKGLLGCNITPLQR
modifications: left off: small tags and cut ends
For B3, the “Interaction with PDX-1 Bait” value (PDX-1 Bait) was “++”.
